Like-named read-outs stand apart in the source and are kept apart here.

Assay [1] addresses Arp2/3 complex (human) (UniProt P61158). Put plainly: SPR. A general note: Surface plasmon resonance follows binding to a sensor surface in real time, without labels.
The target is the same in assay [2]. The assay is described as follows: SPR. The source holds these as a separate data set.

“full-length Arpin (SEC fractions used in SPR) (from UniProt Q7Z6K5-1 1-226) (natural protein)”: the values for the Kd with Arp2/3 complex (human) [1] and in the assay with Arp2/3 complex (human) [2] were 48.9 µM and 14.1 µM, respectively. “GST-aCT (chimeric protein with Arpin's CT fused to the C-terminus of glutathione S-transferase through the spacer -GSSG-)”: the Kd with Arp2/3 complex (human) [2] turned out to be 2.5 µM. With “Arpin CT peptide (residues 192-226) (from UniProt Q7Z6K5-1 192-226)”, in the assay with Arp2/3 complex (human) [2], the Kd is 17.8 µM. As for “human Arpin with the double-site alanine substitution F95A/M97A (from UniProt Q7Z6K5-1 1-226) (natural protein)”, the Kd with Arp2/3 complex (human) [2] was found to be 63.1 µM.

One may read the Kd as the equilibrium constant for the complex coming apart.

The values are drawn from publication doi:10.1101/2025.06.24.661301.
